Assay results as given in article PMC3220277 (Biochemistry, 2011).

Tests used:
Test in all cases: fluorescence polarisation
C3R/C86S S100A4 = C3R/C86S S100A4 (human, UniProt P26447 1-101, C3R | C86S)
wild-type human S100A4 = wild-type human S100A4 (human, UniProt P26447 1-101)
C81S S100A4 = C81S S100A4 (human, UniProt P26447 1-101, C81S)
C81A S100A4 = C81A S100A4 (human, UniProt P26447 1-101, C81A)
C81A S100A4, sequence (P26447 whole entry C81A, one chain of several): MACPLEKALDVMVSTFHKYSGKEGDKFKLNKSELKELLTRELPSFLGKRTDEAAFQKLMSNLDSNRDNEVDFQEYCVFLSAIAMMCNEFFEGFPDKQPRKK

wild-type human S100A4, sequence (P26447 whole entry, one chain of several): as the sequence (P26447 whole entry C81A, one chain of several) above, with A81C counted along it
C3R/C86S S100A4, sequence (P26447 whole entry C3R/C86S, one chain of several): as the sequence (P26447 whole entry C81A, one chain of several) above, with C3R, A81C, C86S counted along it
C81S S100A4, sequence (P26447 whole entry C81S, one chain of several): as the sequence (P26447 whole entry C81A, one chain of several) above, with A81S counted along it

B1: FITC-Ahx-DAMNREVSSLKNKLRR-OH peptide (FITC-MIIA^1908−1923) (peptide)
peptide: DAMNREVSSLKNKLRR
HELM: PEPTIDE1{[O=C1OC2(c3ccc(O)cc3Oc3cc(O)ccc32)c2ccc(NC(=S)[*:2])cc21].[O=C(CCCCCN[*:1])[*:2]].D.A.M.N.R.E.V.S.S.L.K.N.K.L.R.R}$$$$V2.0
SMILES: CSCC[C@H](NC(=O)[C@H](C)NC(=O)[C@H](CC(=O)O)NC(=O)CCCCCNC(=S)Nc1ccc2c(c1)C(=O)OC21c2ccc(O)cc2Oc2cc(O)ccc21)C(=O)N[C@@H](CC(N)=O)C(=O)N[C@@H](CCCNC(=N)N)C(=O)N[C@@H](CCC(=O)O)C(=O)N[C@H](C(=O)N[C@@H](CO)C(=O)N[C@@H](CO)C(=O)N[C@@H](CC(C)C)C(=O)N[C@@H](CCCCN)C(=O)N[C@@H](CC(N)=O)C(=O)N[C@@H](CCCCN)C(=O)N[C@@H](CC(C)C)C(=O)N[C@@H](CCCNC(=N)N)C(=O)N[C@@H](CCCNC(=N)N)C(=O)O)C(C)C
Kd (C3R/C86S S100A4): 1.4 ± 0.1 µM
Kd (wild-type human S100A4): 2.3 ± 0.3 µM
Kd (C81S S100A4): 128 ± 15.7 µM
Kd (C81A S100A4): 46.6 ± 3.2 µM
